Assay results from article doi:10.1101/2020.05.18.103002 (bioRxiv, 2020).
Where no end group is shown, it is not given here.

Assays:
Assay in all cases: fluorescence polarisation
[1] = molecular target: FITC-conjugated CD3ε peptide (…)
[2] = molecular target: FITC-conjugated PAK1 peptide (…)
[3] = molecular target: NCK2 full length recombinant protein (WT, tag-free) (mouse, UniProt O55033 1-380)

Molecule	fold decrease of binding against WT NCK2 [1]	binding result [3]	also measured
NCK2 2|3|1 full length recombinant protein (SH3-shuffled, tag-free) (from UniProt O55033)	2 fold		
NCK2 3|2|1 full length recombinant protein (SH3-shuffled, tag-free) (from UniProt O55033)	2 fold		
NCK2 3|1|2 full length recombinant protein (SH3-shuffled, tag-free) (from UniProt O55033)			fold decrease of binding against WT NCK2 [2]: 2 fold
DIQDKPPAPPMRNTST (also: FITC-conjugated, site not given here) [FITC-conjugated PAK1 peptide (DIQDKPPAPPMRNTST)]		binds	
RGQNKERPPPVPNPDY (also: FITC-conjugated, site not given here) [FITC-conjugated CD3ε peptide (RGQNKERPPPVPNPDY)]		binds	
